Experimental findings from patent publication US20190367592A1 (AC IMMUNE, published 2019) are described below.

Where no end group is shown, it is not given here.

For experiment [1], the target named is T1, AVI-tag biotinylated monomeric flTau (human, UniProt P10636-8 1-441, site-specific biotin on AVI-tag).
T1 construct: also called monoTau; monomeric Tau
Kind of experiment: capture ELISA, antibody on anti-IgG plate, biotinylated monoTau titrated, O.D. The method, then: (§1) For the oligoTau and monoTau capture ELISAs, antibodies contained in serum-free sterile hybridoma supernatants were immobilized on an anti-IgG coated plate at 500-fold dilution, followed by the incubation of oligoTau or monoTau, both with site-specific biotinylation via an AVI-tag. The target incubations started at 5 μg/mL and then were diluted 8- or 16-fold. Streptavidin-HRP and ABTS substrate was used for signal quantitation in a plate reader (Tecan, Switzerland). Results are expressed as O.D.
A general note: An ELISA detects its analyte on a solid surface through an enzyme-linked reagent.

Experiment [2] deals with T2, AVI-tag biotinylated oligomeric flTau (human, UniProt P10636-8 1-441, site-specific biotin on AVI-tag).
T2 construct: also called oligoTau; oligomeric Tau
Kind of experiment: capture ELISA, antibody on anti-IgG plate, biotinylated oligoTau titrated, O.D. The method, then:
as §1

In experiment [3] the target is T3, full-length human Tau (flTau) (human, UniProt P10636-8 1-441).
T3 construct: range 1-441; bought (SignalChem); also called human Tau-441
Kind of experiment: indirect ELISA, flTau coated, hybridoma supernatant diluted, O.D. The method, then:
Coating was done overnight in phosphate-buffered saline (PBS) at 4° C. Plates were washed thoroughly with 0.05% Tween-20/PBS and then blocked with 1% bovine serum albumin (BSA) in 0.05% Tween-20/PBS for 1 hr at 37° C. The antibody contained in the hybridoma supernatant was then added at the indicated dilutions, and incubated for 2 hrs at 37° C. after which the plates were washed as described previously.
For the indirect ELISAs, an AP-conjugated anti-mouse IgG secondary antibody (Jackson ImmunoResearch Laboratories, United Kingdom) was added at 1/6000 dilution in 0.05% Tween-20/PBS for 2 hr at 37° C. After the final wash, plates were incubated with p-nitrophenyl phosphate disodium hexahydrate (pNPP; Sigma-Aldrich, Switzerland) phosphatase substrate solution, and read at 405 nm using an ELISA plate reader (Tecan, Switzerland). Results are expressed as optical densities (O.D.).

Experiment [4] concerns the target T3, full-length human Tau (flTau). Kind of experiment: SPR, hybridoma Ab on anti-IgG chip, flTau analyte. In short, it runs like this: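 Unpurified antibodies from serum-free hybridoma supernatants were captured on an anti-IgG SPR chip (Biacore T-100), and flTau was flowed as analyte. KD was obtained from kinetic analysis with a 1:1 Langmuir fit.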
On the technique in general: SPR reads the build-up and loss of mass on a sensor chip optically.

For a further experiment, the target named is T4, 0N4R Tau (human, UniProt P10636-6 1-383).
T4 construct: also called 0N-Tau
Description: indirect or sandwich ELISA on recombinant human Tau isoforms.

The target of another experiment is T5, Tau fragment 1-15 (human, UniProt P10636-8 1-15).
T5 construct: range 1-15
T5 peptide (looked up): MAEPRQEFEVMEDHA
Description: ELISA on Tau 15-mer peptides, O.D.; conditions of this panel not given.

Another experiment addresses T6, Tau fragment 19-33 (human, UniProt P10636-8 19-33, not fully specified).
T6 construct: range 19-33
T6 peptide (looked up): GLGDRKDQGGYTMHQ
The experiment is described as above.

The target of a further experiment is T7, Tau fragment 28-42 (human, UniProt P10636-8 28-42, not fully specified).
T7 construct: range 28-42
T7 peptide (looked up): GYTMHQDQEGDTDAG
The experiment is described as above.

In a further experiment the target is T8, Tau fragment 37-51 (human, UniProt P10636-8 37-51).
T8 construct: range 37-51
T8 peptide (looked up): GDTDAGLKESPLQTP
Described as above.

Another experiment has as its target T9, MAPT(10-24) (human, also: biotinylated, site not given here).
T9 construct: also called Tau fragment 10-24
T9 peptide: VMEDHAGTYGLGDRK
The experiment is described as above.

The target in experiment [5] is T10, recombinant human Tau monomer, 2N4R isoform (amino acids 2-441) (human, UniProt P10636-8 2-441).
T10 construct: range 2-441; N-terminal His-tag removed with TEV protease; also called monomeric Tau
Kind of experiment: SPR, mIgG2a captured, Tau monomer analyte, 1:1 fit. In short, it runs like this:
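Antibodies in mIgG2a format captured on anti-mouse IgG surface at 1 μg/ml (30 or 45 s) or 0.1 μg/ml (70 or 150 s), 10 μl/min, in HBSP (10 mM HEPES pH7.4, 150 mM NaCl, 0.05% Tween 20). Tau monomer flowed as analyte; association 180-480 s, dissociation 300-600 s, 1:1 fit.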

Experiment [6] has as its target T10, recombinant human Tau monomer, 2N4R …. Description: SPR, human Fab capture kit, Tau monomer analyte. The method, then:
Affinity was assessed at 25° C. using a Biacore T200 instrument, the GE Biacore human FAb capture kit and a CM5 Series S chip. The hIgG were diluted to 0.5 μg/ml in 10 mM HEPES pH7.4, 150 mM NaCl, 0.05% Tween 20 (running buffer, HBSP) and captured at a flow rate of 10 μl/min for 180 seconds. Kinetic data was collected for Human Tau monomer injected at concentrations of 0, 0.4, 1.2, 3.7, 11, 11, 33 and 100 nM in HBSP, using a flow rate of 30 μl/min, a 300 second association phase and a 600 second dissociation phase. Between cycles the surface was regenerated using two sequential 60 second injections of 10 mM Glycine pH 2.1. Data was fit to a 1:1 binding model.

T10 sequence (P10636 other isoform, or with tags, fused parts or gaps limits assumed): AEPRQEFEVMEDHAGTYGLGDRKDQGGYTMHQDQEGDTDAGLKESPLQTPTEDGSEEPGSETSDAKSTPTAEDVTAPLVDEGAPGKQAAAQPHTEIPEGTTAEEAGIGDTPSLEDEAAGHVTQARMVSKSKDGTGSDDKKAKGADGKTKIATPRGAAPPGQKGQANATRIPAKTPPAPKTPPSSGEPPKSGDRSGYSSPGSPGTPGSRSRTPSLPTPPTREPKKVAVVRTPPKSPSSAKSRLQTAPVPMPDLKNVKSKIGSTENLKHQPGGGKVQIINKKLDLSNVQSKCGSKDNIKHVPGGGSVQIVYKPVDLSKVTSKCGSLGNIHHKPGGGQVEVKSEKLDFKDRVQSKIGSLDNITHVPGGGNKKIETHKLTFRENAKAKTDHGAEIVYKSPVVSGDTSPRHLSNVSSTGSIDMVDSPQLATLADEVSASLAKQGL
T3 sequence (P10636 other isoform, or with tags, fused parts or gaps limits assumed): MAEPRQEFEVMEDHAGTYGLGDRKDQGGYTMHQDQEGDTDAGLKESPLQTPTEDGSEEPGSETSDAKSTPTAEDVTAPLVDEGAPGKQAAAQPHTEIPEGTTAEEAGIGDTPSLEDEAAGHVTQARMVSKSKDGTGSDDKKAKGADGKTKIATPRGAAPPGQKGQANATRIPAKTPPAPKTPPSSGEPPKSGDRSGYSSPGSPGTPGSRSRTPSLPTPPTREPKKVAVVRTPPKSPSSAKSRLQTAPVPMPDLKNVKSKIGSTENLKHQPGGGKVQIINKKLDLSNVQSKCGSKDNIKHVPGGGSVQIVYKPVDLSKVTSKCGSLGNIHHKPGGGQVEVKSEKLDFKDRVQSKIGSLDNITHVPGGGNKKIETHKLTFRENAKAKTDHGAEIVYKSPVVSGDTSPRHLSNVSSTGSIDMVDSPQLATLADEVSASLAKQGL
T4 sequence (P10636 other isoform, or with tags, fused parts or gaps limits assumed): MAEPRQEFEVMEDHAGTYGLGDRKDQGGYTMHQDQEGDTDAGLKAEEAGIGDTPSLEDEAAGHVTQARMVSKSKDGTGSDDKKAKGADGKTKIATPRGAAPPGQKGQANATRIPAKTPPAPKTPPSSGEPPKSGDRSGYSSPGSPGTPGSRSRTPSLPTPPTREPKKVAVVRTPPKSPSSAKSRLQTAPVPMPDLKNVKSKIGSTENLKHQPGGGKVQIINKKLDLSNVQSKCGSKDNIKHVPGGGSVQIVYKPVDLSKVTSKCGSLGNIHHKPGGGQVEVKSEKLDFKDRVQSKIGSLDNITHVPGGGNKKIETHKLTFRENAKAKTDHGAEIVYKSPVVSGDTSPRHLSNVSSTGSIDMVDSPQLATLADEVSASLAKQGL

B1: 73H6-B8 (antibody, V domains shown)
VH: QVQLKESGPGLVAPSQSLSITCTISGFSLTSYGVHWVRQPPGKGLEWLVVIWSDGSTTYNSALKSRLSISKDNSKSQVFLKMNSLQTDDTAMYYCARQGGFITTAYYAMDYWGQGTSVTVSS
VL: DIVMSQSPSSLAVSAGEKVTMSCKSSQSLLNSRTRKNYLAWYQQKPGQSPKLLIYWASTRESGVPDRFTGSGSGTDFTLTISSVQAEDLAVYYCKQSYNLYTFGGGTKLEIK
notes: hybridoma supernatant
With B1, the binding result in experiment [1] and in experiment [2] was “binds” throughout.

B2: 14F5-D9 (antibody, V domains shown)
VH: EVKLVESGGGLVQPGGSLRLSCATSGFTFSDFYMEWVRQSPGKRLEWIAASKNKANDYTTEYNASVKDRFFVSRDTSQSILYLQMNALRAEDTAIYYCARDALGTVFAYWGQGTLVTVSA
VL: DVVMTQTPLSLPVSLGDQASISCRSSQSLVHSNGNTYLHWYLQKPGQSPKLLIYKVFNRFSGVPDRFSGSGSGTDFTLKISRVEAEDLGVYFCSQSTLVPLTFGAGTKLELK
notes: hybridoma supernatant
B2: the binding result in experiment [1], in experiment [3] and in experiment [2] was “binds” in each case.

B3: 30D12-B5 (antibody, V domains shown)
VH: EVQLQQSGAELVKPGASVKLSCTTSGFNIKDTYMHWVKQRPEQGLEWIGGIDPANGNTKYDPKFQGKATITADTSSNTAYLQLSSLTSEDTAVYYCAHGNFVYWGQGTLVTVSA
VL: DVVMTQTPLSLSVTIGQPASISCKSSQSLLYSNGKTYLNWFQQRPGQAPKHLMYQVSKLDPGIPDRFSGSGSETDFTLKISRVEAEDLGVYYCLQGTYYPLTFGAGTNLELK
notes: hybridoma supernatant
A word on the Kd: it is the equilibrium constant for the complex coming apart. On to B3, for which the Kd in experiment [4] was 2 nM. Besides, in the experiment with 0N4R Tau, the binding result was “no binding (tested: not given)”.

B4: 77D1-D2 (antibody, V domains shown)
VH: EVQLQQSVAELVRPGASVTLSCTSSGFNIKNTYMHWVIQRPEQGLEWIGKIDPAIVNTKYAPKFQGKATITADTSSNTAYLQLSSLTSEDTGIYYCAEGALLYWGLGTSVTVSS
VL: DVVMTQTPLSLSVTIGQPASISCKSSQSLLHSNGKTYLNWLQQRPGQAPKLLMYLVSKVDPGIPDRFSGSGSETDFTLKISRVEAEDLGVYYCFQGTYYPHTFGGGTKLEIK
notes: hybridoma supernatant
For B4, in experiment [4], binding was characterised by a dissociation constant (Kd) of 0.5 nM. Besides, the binding result with 0N4R Tau was “no binding (tested: not given)”.

B5: 19H6-F7 (antibody, mouse IgG2a, V domains shown)
VH: EVQLVESGGDLVKPGGSLKLSCAASGFTFSSYGMSWVRQTPDKRLEWVATISSGGTYTYYPDSVKGRFTISRDNAKNTLYLQMSSLKSEDTAMYYCAPSYDGAMDYWGQGTSVTVSS
VL: DVLMTQTPLSLPVSLGDQASISCRSSQSIVHSNGNTYLEWYLQKPGQSPKLLIYKVSNRFSGVPDRFSGSGSGTDFTLKISRVEAEDLGVYYCFQGSLVPWTFGGGTKLEIK
What is called EC50 (read off the curve) is the midpoint of the concentration-response curve. A higher EC50 (read off the curve) goes with a need for much substance. One may read the koff as a measure of how fast the partners let go of each other. For orientation: kon means a measure of how fast the partners come together. Consider B5, for which the binding result is “no binding (tested: not given)” with Tau fragment 1-15; “no binding (tested: not given)” with Tau fragment 19-33; “no binding (tested: not given)” with Tau fragment 28-42; “no binding (tested: not given)” in the experiment with Tau fragment 37-51; “binds” with MAPT(10-24). For the same molecule, the Kd came out at 39 nM in [4] and 10 nM in [5]. The “EC50 (read off the curve)” value in experiment [2] was roughly 0.2 mg/L. For the same molecule, in experiment [5], the koff turned out to be 0.002 s⁻¹. Also, the kon in experiment [5] is 200000 M⁻¹ s⁻¹.

B6: 15C6-A7 (antibody, V domains shown)
VH: EVQLQQSGPELVKPGASVMMTCKASGYTFTDYYMKWVKQSNGKSLEWIGDLDPYTGGANYNQKFKGKATLTVDKSSSTAYMHLNSLTSEDSAVYYCARSRGYGDSFAYWGQGTLVTVSA
VL: DVLMTQTPLSLPVSLGDQASISCRSSQNIVHSNGNTYLEWYLQKPGQSPKLLIYKVSNRFSGVPDKFSGSGSGTDFTLKISRVEAEDLGVYFCFQGSHVPPTFGGGTKLEIK
notes: hybridoma supernatant
B6: the binding result in experiment [1], in experiment [3] and in [2] was “binds” throughout.

B7: 3A4-H4 (antibody, mouse IgG2a, V domains shown)
VH: EVQLVESGGDLVKPGGSLKLSCAASGFTFSSYGMSWVRQTPDKRLEWVATISSGGTYTYYPDSVKGRFTISRDNAKNTLYLQMSSLKSEDTAMYFCATSYDGAMDYWGQGTSVTVSS
VL: DVLMTQTPLSLPVSLGDQASISCRSSQNIVHSNGNTYLEWYLQKPGQSPKLLIYKVSNRFSGVPDRFSGSGSGTDFTLKISRVEAEDLGVYYCFQGTLVPWTFGGGTKLEIK
Take B7: the binding result in the experiment with Tau fragment 1-15, with Tau fragment 19-33, with Tau fragment 28-42 and with Tau fragment 37-51 was “no binding (tested: not given)” throughout. The Kd was found to be 7.8 nM in [4] and 12 nM in experiment [5]. In experiment [2], the “EC50 (read off the curve)” value was roughly 0.09 mg/L. The koff in experiment [5] is 0.0003 s⁻¹. The kon in [5] came out at 30000 M⁻¹ s⁻¹.

B8: 211G6-B6 (antibody, V domains shown)
VH: QVQLKESGPGLVAPSQSLSITCTVSGFSLTSYAISWVRQPPGKGLEWLGVIWTGGGTNYNSALKSRLSITKDNSKNQVFFRMNSLQTDDTARYYCARKKLYDYDGGYFFDYWGQGTTLTVSS
VL: DIVMSQSPSSLAMSVGEKVTMSCKSNQSLLYSSNQKNYLAWYQQKPGQSPKLLIYWASTRESGVPDRFTGSGSGTDFTLTISSVKAEDLAVYYCHQYYSYPWTFGGGTKLEIK
For the molecule B8, the affinity in [4], expressed as Kd, was 4.7 nM. In addition, in the experiment with 0N4R Tau, the binding result is recorded as “no binding (tested: not given)”.

B9: hu37D3-H9.v28.A4 hIgG4.S228P.YTE (antibody, V domains shown)
VH: EVQLVESGGGLVQPGGSLRLSCAASGLIFRSYGMSWVRQAPGKGLEWVATINSGGTYTYYPDSVKGRFTISRDNSKNTLYLQMNSLRAEDTAVYYCANSYSGAMDYWGQGTLVTVSS
VL: DDVLTQTPLSLPVTPGQPASISCRSSQSIVHSNGNTYLEWYLQKPGQSPQLLIYKVSNRFSGVPDRFSGSGSGTDFTLKISRVEAEDVGVYYCFQGSLVPWTFGQGTKVEIKR
notes: also called hu37D3.v28.A4 hIgG4-S228P.YTE
On to B9, for which, in experiment [6], the Kd worked out at 1.4 nM, the koff was 0.0009 s⁻¹ and the kon was found to be 600000 M⁻¹ s⁻¹.
